Laboratory results reported in PMC4599343 (Archives of biochemistry and biophysics, 2015).

Key:
[1] = target: T1, CYP2B6 (Homo sapiens, UniProt P20813, K262R/Y226H); experiment: biochemical
T1 sequence (P20813 29-491 Y226H/K262R): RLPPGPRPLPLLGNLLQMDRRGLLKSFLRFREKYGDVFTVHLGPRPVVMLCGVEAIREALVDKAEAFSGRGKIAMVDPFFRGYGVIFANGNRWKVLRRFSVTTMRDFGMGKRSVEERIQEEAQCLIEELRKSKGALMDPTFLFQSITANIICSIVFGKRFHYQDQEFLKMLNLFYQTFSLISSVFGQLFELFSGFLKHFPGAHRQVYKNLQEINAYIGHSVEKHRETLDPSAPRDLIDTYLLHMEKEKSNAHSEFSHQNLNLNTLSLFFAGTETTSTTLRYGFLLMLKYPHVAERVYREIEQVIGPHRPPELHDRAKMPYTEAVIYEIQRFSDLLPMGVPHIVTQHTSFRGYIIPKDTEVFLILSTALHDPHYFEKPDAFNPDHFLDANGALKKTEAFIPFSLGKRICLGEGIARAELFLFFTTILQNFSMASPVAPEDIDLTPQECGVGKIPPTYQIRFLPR

[2] = target: T2, CYP2B6 (Homo sapiens, UniProt P20813, Y226H/K262R); format: biochemical; conditions: reconstituted purified enzyme
T2 sequence (P20813 29-491 Y226H/K262R): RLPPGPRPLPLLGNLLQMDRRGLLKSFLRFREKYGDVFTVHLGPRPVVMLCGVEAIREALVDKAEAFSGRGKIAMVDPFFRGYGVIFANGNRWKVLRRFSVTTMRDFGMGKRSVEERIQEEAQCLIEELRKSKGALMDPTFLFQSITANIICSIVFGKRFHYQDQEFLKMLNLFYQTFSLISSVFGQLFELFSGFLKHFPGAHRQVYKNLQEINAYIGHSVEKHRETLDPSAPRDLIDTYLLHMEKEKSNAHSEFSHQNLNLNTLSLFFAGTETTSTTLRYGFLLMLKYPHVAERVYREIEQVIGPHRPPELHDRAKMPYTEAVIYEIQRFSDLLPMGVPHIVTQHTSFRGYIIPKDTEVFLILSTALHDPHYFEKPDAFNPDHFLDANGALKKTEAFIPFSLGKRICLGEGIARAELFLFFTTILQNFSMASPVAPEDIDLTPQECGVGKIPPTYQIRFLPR

[3] = substrate: CCOc1ccc2c(C(F)(F)F)cc(=O)oc2c1; experiment: steady-state O-deethylation kinetics, reconstituted purified enzyme; format: biochemical, Oryctolagus cuniculus; conditions: heme
[4] = substrate: O=c1ccc2nc3ccc(OCc4ccccc4)cc3oc-2c1; experiment: steady-state O-debenzylation kinetics, reconstituted purified enzyme; format: biochemical, Oryctolagus cuniculus; conditions: heme

With `OC[C@H]1O[C@H](O[C@H]2[C@H](O)[C@@H](O)[C@H](OCCCCCC3CCCCC3)O[C@@H]2CO)[C@H](O)[C@@H](O)[C@@H]1O` [CYMAL-5, 5-cyclohexyl-1-pentyl-β-D-maltoside] as the molecule, how does the IC50 [1] read?
Its IC50 is 739 ± 42.5 µM.

With `CCOc1ccc2c(C(F)(F)F)cc(=O)oc2c1` [7-EFC, 7-ethoxy-4-(trifluoromethyl)coumarin] as the molecule, how does the Km [2] read?
Its Km is 6.2 ± 0.6 µM.

B1: CYP2B4 (Oryctolagus cuniculus; H226Y) (protein)
chain: GRLPPGPSPLPVLGNLLQMDRKGLLRSFLRLREKYGDVFTVYLGSRPVVVLCGTDAIREALVDQAEAFSGRGKIAVVDPIFQGYGVIFANGERWRALRRFSLATMRDFGMGKRSVEERIQEEARCLVEELRKSKGALLDNTLLFHSITSNIICSIVFGKRFDYKDPVFLRLLDLFFQSFSLISSFSSQVFELFPGFLKYFPGTHRQIYRNLQEINTFIGQSVEKHRATLDPSNPRDFIDVYLLRMEKDKSDPSSEFHHQNLILTVLSLFFAGTETTSTTLRYGFLLMLKYPHVTERVQKEIEQVIGSHRPPALDDRAKMPYTDAVIHEIQRLGDLIPFGVPHTVTKDTQFRGYVIPKNTEVFPVLSSALHDPRYFETPNTFNPGHFLDANGALKRNEGFMPFSLGKRICLGEGIARTELFLFFTTILQNFSIASPVPPEDIDLTPRESGVGNVPPSYQIRFLAR
Which results are given for B1?
Km [3]: 28.4 ± 7.6 µM; kcat [3]: 0.123 ± 0.0217 s⁻¹; kcat/Km [3]: 4330 M⁻¹ s⁻¹; Km [4]: 1.03 ± 0.22 µM; kcat [4]: 0.03267 ± 0.000167 s⁻¹; kcat/Km [4]: 31700 M⁻¹ s⁻¹
